In US20210024625A1 (published 2021):
Substitutions are numbered along the chain they refer to.

B1: H1H29100P (antibody, V domains shown)
VH: QLQLQESGPGLVKPSETLSLTCTVSGGSISSSSYYWGWIRQPPGKGLEWIGIIYYSGSTYYNPSLKSRVTISVDTSKNQFSLKLSSVTAADTAVYYCARQDREALFDYWGQGTLVTVSS
VL: EIVLTQSPDFQSVTPKEKVTITCRASQRIGSSLHWYQQKPDQSPKLLIKYASQSFSGVPSRFSGSGSGTDFTLTINSLEAEDAATYYCHQSSTLPTFGQGTRLEIKR
B2: H1H29089P (antibody, V domains shown)
VH: EVQLVQSGAEVKKPGESLKISCKGSGYSFTSYWIVWVRQMPGKGLEWMGIIYPGDSDTRYSPSFQGQVTISADKSISTAYLQWSSLKASDTAMYYCARQDITGTTGFDYWGQGTLVTVSS
VL: DIQMTQSPSSLSASVGDRVTITCRASQSIRNYLNWYQQKPGKAPKLLIYAASSLQSGVPSRFSGSGSGTDFTLTISSLQPEDFATYFCQQSYSTPFTFGPGTKVDIKR
B3: H1H29127P (antibody, V domains shown)
VH: QVQLVESGGGVVQPGRSLRLSCAASGFTFSSYGMHWVRQAPGKGLEWVAAIWYDGSNKYYADSVKGRFTISRDNSKNTLYLQMNSLRAEDTAVYFCARGEHYYGSGPFDPWGQGTLVTVSS
VL: B2 VL with R30S, Y49F, F87Y, T94S, F96L, P100G, D105E
B4: H1H29143P (antibody, V domains shown)
VH: EVQLVESGGGLVQPGGSLRLSCAASGFTFNNYAMSWVRQAPGRGLEWVSAISGSGDSTYYSDSVKGRFTISRDNSKNTLYLQMNSLRAEDTAVYYCAKDQGLYYYGSGSFDYWGQGTLVTVSS
VL: not shown
B5: H1H29104P (antibody, V domains shown)
VH: EVQLVESGGGLVQPGRSLRLSCAASGFRFDDYAMHWVRQAPGKGLEWVSGINWNSGGKGYADSVQGRFTISRDNAKNSLYLQMNSLRTEDTALYYCAKDRGIAARLLSRDAFDMWGQGTMVTVSS
VL: DIQLTQSPSFLSASVGDRVTITCWASQDVSSYLAWYQQKPGKSPKLLIFAASTLQGGIPSRFSGSGSGTEFTLTISSLRPEDFATYYCQHLNTYPYTFGQGTKLEIKR
B6: H1H29147P2 (antibody, V domains shown)
VH: QVQLVQSGAEVKNPGSSVKVSCKASGGTFSSYTINWVRQAPGQGLEWMGGIIPLYGTANYAQKFQARVTISTDESTNTAYMELSNLRFEDTAVYFCASTLELRAFDAFDIWGQGTMVTVSS
VL: not shown
B7: H1H29187P2 (antibody, V domains shown)
VH: QVQLVESGGGVVQPGRFLRLSCAASGFTFSNSGMHWVRQAPGKGLEWVAGIWHDGSYKYYVDSVKGRFTISRDNSKNTLFLQMNSLRAEDTAVYYCARDDYYASGTSVDVWGQGTTVTVSS
VL: not shown

Experiments:
Assay in all cases: cell-based or functional assay
[1] = target: T1, PfRH5 from Plasmodium falciparum strain 3D7 (Plasmodium falciparum, UniProt Q8IFM5 25-526)
T1 sequence: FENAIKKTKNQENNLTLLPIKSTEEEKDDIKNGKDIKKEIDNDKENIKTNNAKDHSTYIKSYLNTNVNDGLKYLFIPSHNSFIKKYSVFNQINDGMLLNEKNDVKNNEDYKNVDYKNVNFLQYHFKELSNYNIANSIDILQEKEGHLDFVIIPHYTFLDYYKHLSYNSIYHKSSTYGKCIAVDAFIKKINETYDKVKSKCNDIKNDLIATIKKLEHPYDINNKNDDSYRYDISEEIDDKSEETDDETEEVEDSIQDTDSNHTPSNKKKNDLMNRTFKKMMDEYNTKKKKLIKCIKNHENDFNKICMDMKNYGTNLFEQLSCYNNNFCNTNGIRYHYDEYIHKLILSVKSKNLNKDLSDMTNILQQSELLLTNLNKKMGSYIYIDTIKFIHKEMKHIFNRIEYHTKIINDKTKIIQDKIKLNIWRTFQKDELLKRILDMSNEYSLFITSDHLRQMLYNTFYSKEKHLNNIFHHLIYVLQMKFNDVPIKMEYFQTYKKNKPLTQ

[2] = target: T2, PfRH5 from Plasmodium falciparum strain 7G8 (Plasmodium falciparum)
[3] = target: PfRH5 from Plasmodium falciparum strain RF7 (Plasmodium falciparum)
[4] = target: PfRH5 from Plasmodium falciparum strain D10 (Plasmodium falciparum)
[5] = target: T2, PfRH5 from Plasmodium falciparum strain …; remark: listed apart in the source
[6] = target: PfRH5 from Plasmodium falciparum strain Cam3.II (Plasmodium falciparum)
[7] = target: T3, PfRH5 from Plasmodium falciparum strain Dd2 (Plasmodium falciparum)
[8] = target: PfRH5 from Plasmodium falciparum strain HB3 (Plasmodium falciparum)
[9] = target: T4, PfRH5 from Plasmodium falciparum strain FCR-1/FVO (Plasmodium falciparum)
[10] = target: PfRH5 from Plasmodium falciparum strain W2-mef (Plasmodium falciparum)
[11] = target: T4, PfRH5 from Plasmodium falciparum strain …; remark: listed apart in the source
[12] = target: T3, PfRH5 from Plasmodium falciparum strain …; remark: listed apart in the source
[13] = target: T1, PfRH5 from Plasmodium falciparum strain …; remark: listed apart in the source

Row | Binder | Max growth inhibition (%), Chloroquine Phosphate N/A [1] [%] | Max growth inhibition (%), Chloroquine Phosphate N/A [2] [%] | Max growth inhibition (%) [3] [%] | Max growth inhibition (%) [4] [%] | Max growth inhibition (%) [5] [%] | Max growth inhibition (%) [6] [%] | Max growth inhibition (%) [7] [%] | Max growth inhibition (%) [8] [%] | Max growth inhibition (%) [9] [%] | Max growth inhibition (%) [10] [%] | Percent Maximum Growth Inhibition, mAb (6.67 µM) + AHIS (10%) [11] [%] | Percent Maximum Growth Inhibition, mAb (6.67 µM) + ANS (10%) [11] [%] | Percent Maximum Growth Inhibition, mAb (6.67 µM) + HHIS (10%) [11] [%] | Percent Maximum Growth Inhibition, mAb (6.67 µM) + HNS (10%) [11] [%] | Percent Maximum Growth Inhibition, mAb (6.67 µM) + No serum [11] [%] | Maximum growth inhibition (%) [12] [%] | Max growth inhibition (%) [13] [%]
1 | B1 | 58 | 48.9 | 17 | 81.7 | 66.4 | 52.4 | 64.6 | 62.6 | 66.9 | 67.3 | 82.5 | 73.2 | 81.9 | 82.4 | 83.9 | 65.7 | 
2 | B2 | 61.1 | 51.1 | 28.9 | 82.3 | 70.1 | 56.2 | 71.3 | 59.1 | 66 | 66.4 | 84.3 | 75.7 | 85.2 | 85 | 85.3 |  | 67.6
3 | B3 |  |  | 25.7 | 74.4 | 61.2 | 47 | 64.7 | 59.4 | 61.1 | 53.6 |  |  |  |  |  | 56.9 | 63.9
4 | B4 |  |  |  | 79.4 | 61.9 | 53.2 | 62.7 | 60.9 | 67.2 | 58.3 |  |  |  |  |  | 56 | 60.3
5 | B5 |  |  | 23.6 | 55.7 | 35.2 | 50 | 61.3 | 39.8 | 67.4 | 47.4 |  |  |  |  |  | 54.1 | 34.4
6 | B6 | 34.9 | 47.3 | 31.4 | 81.4 | 65.2 | 51.9 | 65.3 | 64.8 | 70.3 | 64.7 | 86.2 | 80.3 | 83.4 | 85.6 | 84.1 |  | 60.3
7 | B7 | 47.6 | 49.3 | 32.7 | 79.6 |  | 49.2 | 66 | 63.9 | 72.2 | 67.3 | 89.4 | 80.1 | 85.4 | 85.9 | 85.3 |  | 70.7
